Experimental data from patent publication US10704030B2, “P450-BM3 variants with improved activity” (Codexis, Inc., priority 2015, dated 2020).
Positions count from the first letter of the chain named. Names and notes keep the numbering of the source.

B1: Variant 18: P450-BM3 variant of SEQ ID NO:16: K32R; C48S; Y52F; I95P; I176V; L216Y; D232H; E349K; M491A; N574T; E619D; D722S; A767T (protein)
chain: MTIKEMPQPKTFGELKNLPLLNTDKPVQALMRIADELGEIFKFEAPGSVTRFLSSQRLIKEACDESRFDKNLSQALKFARDFLGDGLVTSWTHEPNWKKAHNILLPSFSQQAMKGYHAMMVDIAVQLVQKWERLNADEHIEVSEDMTRLTLDTIGLCGFNYRFNSFYRDQPHPFIVSMVRALDEVMNKLQRANPDDPAYDENKRQCQEDIKVMNDYVDKIIADRKARGEQSHDLLTQMLNGKDPETGEPLDDGNISYQIITFLIAGHETTSGLLSFALYFLVKNPHVLQKVAEEAARVLVDPVPSYKQVKQLKYVGMVLNEALRLWPTAPAFSLYAKEDTVLGGEYPLKKGDEVMVLIPQLHRDKTIWGDDVEEFRPERFENPSAIPQHAFKPFGNGQRACIGQQFALHEATLVLGMMLKHFDFEDHTNYELDIKETLTLKPEGFVVKAKSKKIPLGGIPSPSTEQSAKKVRKKAENAHNTPLLVLYGSNAGTAEGTARDLADIAMSKGFAPQVATLDSHAGNLPREGAVLIVTASYNGHPPDNAKQFVDWLDQASADEVKGVRYSVFGCGDKTWATTYQKVPAFIDETLAAKGAENIADRGEADASDDFEGTYEEWRDHMWSDVAAYFNLDIENSEDNKSTLSLQFVDSAADMPLAKMHGAFSTNVVASKELQQPGSARSTRHLEIELPKEASYQEGDHLGVIPRNYEGIVNRVTARFGLSASQQIRLEAEEEKLAHLPLAKTVSVEELLQYVELQDPVTRTQLRTMAAKTVCPPHKVELEALLEKQAYKEQVLAKRLTMLELLEKYPACEMKFSEFIALLPSIRPRYYSISSSPRVDEKQASITVSVVSGEAWSGYGEYKGIASNYLAELQEGDTITCFISTPQSEFTLPKDPETPLIMVGPGTGVAPFRGFVQARKQLKEQGQSLGEAHLYFGCRSPHEDYLYQEELENAQSEGIITLHTAFSRMPNQPKTYVQHVMEQDGKKLIELLDQGAHFYICGDGSQMAPAVEATLMKSYADVHQVSEADARLWLQQLEEKGRYAKDVWAG
modifications: P450_BM3
notes: C48S; Y52F; I95P; I176V; L216Y; D232H; E349K; M491A; N574T; E619D; D722S; A767T
B2: Variant 19: P450-BM3 variant of SEQ ID NO:16: C48S; Y52F; I95P; Q111R; I176V; L216Y; D232H; P347T; M491A; N574T; D722S (protein)
chain: B1 chain with R32K, Q111R, P347T, K349E, D619E, T767A
modifications: P450_BM3
notes: Y52F; I95P; Q111R; I176V; L216Y; D232H; P347T; M491A; N574T; D722S

Tests used:
Assay type in all cases: biochemical
[1] = Validation of generalist properties: oxidation of loratadine by lyophilized P450-BM3 variant, UPLC-MS; settings: [Loratadine] = 1 mM; for TON: TON = [substrate]*% conversion/[P450]
How it was run: (§1)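 Lyophilized lysate of E. coli-expressed P450-BM3 variant (stock standardized to 12 μM heme) was incubated 24 h at 30 °C with 1 or 2 mM substrate, 1.0 mM NADP+, 25 mM glucose, 0.5 mg/mL glucose dehydrogenase and 5% DMSO in 100 mM potassium phosphate. Acetonitrile-quenched samples were analyzed by UPLC-MS (positive ESI).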

[2] = Validation of generalist properties: oxidation of diclofenac by lyophilized P450-BM3 variant, UPLC-MS; settings: [Diclofenac] = 1 mM; for TON: TON = [substrate]*% conversion/[P450]; for FIOPC (F12): fold improvement over parent MCYP-1.2-F12
How it was run: as §1

[3] = Validation of generalist properties: oxidation of imatinib by lyophilized P450-BM3 variant, UPLC-MS; settings: [Imatinib] = 1 mM; for TON: TON = [substrate]*% conversion/[P450]; for FIOPC (F12): fold improvement over parent MCYP-1.2-F12
How it was run: as §1

[4] = Validation of generalist properties: oxidation of gefitinib by lyophilized P450-BM3 variant, UPLC-MS; settings: [Gefitinib] = 1 mM; for TON: TON = [substrate]*% conversion/[P450]; for FIOPC (F12): fold improvement over parent MCYP-1.2-F12
How it was run: as §1

Molecule	% Conv. [1]	TON [1]	FIOPC (F12) ([1]; fold improvement over parent MCYP-1.2-F12)	% Conv. [2]	TON [2]	FIOPC (F12) [2]	% Conv. [3]	TON [3]	FIOPC (F12) [3]	% Conv. [4]	TON [4]	FIOPC (F12) [4]	FIOPC (F02) ([1]; fold improvement over parent MCYP-P1.2-F02)
B1	++ (5.01-10.00)	‡‡‡ (5001-10000)	* (0.0-3.0)	++++ (15.01-20.00)	‡‡‡‡ (10000-50000)	* (0.0-3.0)	+++ (10.01-15.00)	‡‡‡ (5001-10000)	** (3.01-5.0)	++++ (15.01-20.00)	‡‡‡‡ (10000-50000)	**** (10.01-15.00)	
B2	+++ (10.01-15.00)	‡‡‡ (5001-10000)		++++ (15.01-20.00)	‡‡‡‡ (10000-50000)	* (0.0-3.0)	+++ (10.01-15.00)	‡‡‡ (5001-10000)	** (3.01-5.0)	++++ (15.01-20.00)	‡‡‡‡ (10000-50000)	**** (10.01-15.00)	* (0.0-3.0)
